Values belong to the molecule of their own block, whether it stands above or below them.
B1: BMPR1Becd (soluble ectodomain of rhBMPR1B) (receptor, human, UniProt O00238 14-126, looked up)
chain: KKEDGESTAPTPRPKVLRCKCHHHCPEDSVNNICSTDGYCFTMIEEDDSGLPVVTSGCLGLEGSDFQCRDTPIPHQRRSIECCTERNECNKDLHPTLPPLKNRDFVDGPIHHR
notes: BMPR1B, BMP type I receptor, human (rh), extracellular domain; also called BMPR1B ectodomain
B2: rhGDF5 (recombinant human Growth & Differentiation Factor 5) (ligand)
chain: RQGKRPSKNLKARCSRKALHVNFKDMGWDDWIIAPLEYEAFHCEGLCEFPLRSHLEPTNHAVIQTLMNSMDPESTPPTCCVPTRLSPISILFIDSANNVVYKQYEDMVVESCGCR
notes: GDF5 (CDMP1), human, recombinant; also called CDMP1; wild-type GDF5; source: bought/supplied: Biopharm GmbH

What was measured:
Experiment in all cases: SPR; BIA2000 system (Biacore); receptor ectodomains immobilised, GDF5 proteins as analyte; apparent KD; n = 6; as described in ref. 16
[1] = molecular target: BMPR1Aecd (soluble ectodomain of rhBMPR1A) (human) (UniProt P36894)
BMPR1Aecd (soluble ectodomain of rhBMPR1A) (human), sequence (P36894 24-152): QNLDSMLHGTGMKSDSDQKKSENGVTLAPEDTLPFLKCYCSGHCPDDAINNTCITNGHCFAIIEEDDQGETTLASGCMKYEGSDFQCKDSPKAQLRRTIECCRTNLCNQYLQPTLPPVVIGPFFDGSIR

[2] = molecular target: BMPR1Becd (soluble ectodomain of rhBMPR1B) (human) (UniProt O00238)
[3] = molecular target: B2; details: both partners purified
[4] = molecular target: T1, BMPR1Aecd (soluble ectodomain of rhBMPR1A) (human, UniProt P36894 24-152); details: both partners purified
T1 construct: BMPR1A, BMP type I receptor, human (rh), extracellular domain; also called BMPR1A ectodomain
T1 sequence (P36894 24-152): as above

Kd [1]: 19.5 nM
Kd [2]: 1.2 nM
Molecule: rhN445T GDF5 (from UniProt P43026 28-501) (ligand)

Molecule: B1
Kd [3]: 1.1 ± 0.2 nM

Molecule: B2
Kd [4]: 17 ± 4.6 nM

— publication PMC2776984 (PLoS Genetics, 2009)
